Source: publication PMC4564187, “Pharmacokinetic and Pharmacodynamic Characterisation of an Anti-Mouse TNF Receptor 1 Domain Antibody Formatted for In Vivo Half-Life Extension” (PLoS ONE, 2015)

T1: recombinant mouse sTNFR1 (mouse, UniProt P25118 30-212)
T1 construct: mouse TNF receptor 1 (TNFR1), soluble form; The methods call the protein amine-coupled to the CM5 chip only 'recombinant mouse TNFR1'; also called mouse TNFR1; mTNFR1; source: bought: R&D Systems (425-R1/CF)
T1 sequence (looked up): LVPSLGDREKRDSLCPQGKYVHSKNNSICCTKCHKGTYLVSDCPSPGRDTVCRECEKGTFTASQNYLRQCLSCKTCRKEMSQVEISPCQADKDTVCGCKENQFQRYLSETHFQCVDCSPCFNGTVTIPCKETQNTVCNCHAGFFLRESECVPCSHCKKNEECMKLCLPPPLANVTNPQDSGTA

B1: DMS5540 (bispecific antibody)
chain: EVQLLESGGGLVQPGGSLRLSCAASGFTFNRYSMGWLRQAPGKGLEWVSRIDSYGRGTYYEDPVKGRFSISRDNSKNTLYLQMNSLRAEDTAVYYCAKISQFGSNAFDYWGQGTQVTVSSASTDIQMTQSPSSLSASVGDRVTITCRASRPIGTMLSWYQQKPGKAPKLLILFGSRLQSGVPSRFSGSGSGTDFTLTISSLQPEDFATYYCAQAGTHPTTFGQGTKVEIKR
notes: anti-mouse TNFR1 VH dAb DOM1m-21-23; three residue linker (Ala-Ser-Thr); About 25 kDa; two human single variable domains on one chain; also called mouse TNFR1 antagonist; genetic fusion of DOM1m-21-23 with the AlbudAb DOM7h-11-12; source: E. coli BL21(DE3) strain derivatives, purified from culture supernatant (Protein-A, cation exchange, SEC when necessary)
B2: DOM1m-21-23 (antibody, V domains shown)
VH: EVQLLESGGGLVQPGGSLRLSCAASGFTFNRYSMGWLRQAPGKGLEWVSRIDSYGRGTYYEDPVKGRFSISRDNSKNTLYLQMNSLRAEDTAVYYCAKISQFGSNAFDYWGQGTQVTVSS

Experiments:
recombinant mouse sTNFR1 [1] = target: T1, recombinant mouse sTNFR1; assay: SPR; Biacore T200, HBS-EP+, 25°C; mouse or human TNFR1 amine-coupled on CM5 chip; DMS5540 injected at 7 concentrations, 2-fold dilutions from 16 nM to 0.125 nM, 50 μl/min; 1:1 binding model; conditions: both partners purified
recombinant mouse sTNFR1 [2] = target: T1, recombinant mouse sTNFR1; assay: cell-based or functional assay

| Binder | Kd (recombinant mouse sTNFR1 [1]) [nM] | koff (recombinant mouse sTNFR1 [1]) [s⁻¹] | kon (recombinant mouse sTNFR1 [1]) [M⁻¹ s⁻¹] | EC50 of inhibition of mouse TNF-α (20 pg/ml) induced cytotoxicity in mouse L929 cells (recombinant mouse sTNFR1 [2]) [nM] |
| --- | --- | --- | --- | --- |
| B1 | 0.27 | 0.000217 | 798000 | 1.3 |
| B2 |  |  |  | 1.7 |
